Laboratory results taken from PMC3127458 (Biochemistry, 2010).
Positions count from the first letter of the chain named. In names and notes the source's numbering stands.

B1: AppA Q63E full-length (natural protein, Rhodobacter sphaeroides, UniProt Q53119 1-450, looked up)
chain: MQHDLEADVTMTGSDLVSCCYRSLAAPDLTLRDLLDIVETSQAHNARAQLTGALFYSQGVFFEWLEGRPAAVAEVMTHIQRDRRHSNVEILAEEPIAKRRFAGWHMQLSCSEADMRSLGLAESRQIVTVGRSLVADNTNIFSFDRIAAVRRFLSDVCAARTLAPDTPVEADTFALYALTEAQAGRSGRAKAVARLSDLLSTDPLGRLTEVEELLRAHAPTAADFARLFEACAERLTRALAEDRISRMQVTLAYSALQMALRRIHHLPDPQKSVGAVLVAGVPGHKPILEAALAAEMLRAVGWSTSVVHPESVAALAARLKTSRTSTLVVAPSLLEGTEQEADTLRFVSALRARTDLPGLSILVGGRLAQLPPSKLKDSGADAGFAHLALLPAALARVACPANADCCSMRACRMPASQCCDKRINPEFLLANVMPSVLTRISSRQDRRRSA
B2: AppA Q63L full-length (natural protein, Rhodobacter sphaeroides, UniProt Q53119 1-450, looked up)
chain: B1 chain with E63L

Biological target: the molecule itself
Assay: SEC

Protein	stoichiometry N
B1	2
B2	2
